Data reported in paper PMC5383425, “Differential CLE peptide perception by plant receptors implicated from structural and functional analyses of TDIF-TDR interactions” (PLoS ONE, 2017).
Square brackets hold non-standard residues; d marks the D form. Ends that are not written are not given here. Hyp = O=C(O)[C@@H]1C[C@@H](O)CN1

How the values were obtained:
Details in all cases: both partners purified
[1] = target: T1, extracellular domain of A. thaliana TDR (residues 30-642) (Arabidopsis thaliana, UniProt Q9FII5 30-642, N-glycosylated at N111, N356, N378, N471 and N525 (one GlcNAc visible on each in the structures)); test: crystal structure; ecdTDR 5 mg/ml (42 μM) mixed with 420 μM TDIF, 4°C for 1 hour; crystals at 18°C in 200 mM MgSO4, 20% PEG 3350; 2.75 Å
T1 construct: TDR/PXY (TDIF RECEPTOR / PHLOEM INTERCALATED WITH XYLEM) of A. thaliana, extracellular domain, residues 30-642; the structure models hold residues 40-625; also called ecdTDR; TDR-ECD; source: High Five insect cells (baculovirus), secreted, purified (Ni-NTA, size-exclusion chromatography)
T1 sequence (looked up): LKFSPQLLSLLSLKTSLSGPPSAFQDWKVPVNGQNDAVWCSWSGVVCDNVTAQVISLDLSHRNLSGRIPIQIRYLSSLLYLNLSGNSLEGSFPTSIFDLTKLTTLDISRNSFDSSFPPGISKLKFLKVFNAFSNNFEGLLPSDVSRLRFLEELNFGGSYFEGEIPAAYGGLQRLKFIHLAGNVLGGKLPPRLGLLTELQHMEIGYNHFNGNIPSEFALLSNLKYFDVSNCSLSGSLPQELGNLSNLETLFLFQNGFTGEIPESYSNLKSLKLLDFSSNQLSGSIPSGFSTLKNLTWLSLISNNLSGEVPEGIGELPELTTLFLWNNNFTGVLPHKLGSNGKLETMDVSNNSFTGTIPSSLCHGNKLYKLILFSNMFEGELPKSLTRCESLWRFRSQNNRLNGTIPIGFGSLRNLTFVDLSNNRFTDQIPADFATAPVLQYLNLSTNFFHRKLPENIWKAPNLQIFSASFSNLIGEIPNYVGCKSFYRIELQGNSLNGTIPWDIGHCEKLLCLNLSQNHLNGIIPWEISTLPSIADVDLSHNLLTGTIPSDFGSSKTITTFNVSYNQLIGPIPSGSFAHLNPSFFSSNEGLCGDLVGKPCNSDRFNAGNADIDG

[2] = target: T2, ecdTDR R421A mutant (Arabidopsis thaliana, UniProt Q9FII5 30-642, single alanine substitution of R421); test: ITC; 0.5–1 mM peptide titrated into 10–40 μM ecdTDR; 25°C; 10 mM sodium citrate, 100 mM NaCl, pH 5.5; fitted to one set of binding sites; MicroCal Auto-iTC200
T2 construct: TDR/PXY of A. thaliana, extracellular domain, residues 30-642; also called single alanine substitution of R421; source: High Five insect cells (baculovirus), secreted, purified as the wild type (Ni-NTA, size-exclusion chromatography)
T2 sequence (looked up): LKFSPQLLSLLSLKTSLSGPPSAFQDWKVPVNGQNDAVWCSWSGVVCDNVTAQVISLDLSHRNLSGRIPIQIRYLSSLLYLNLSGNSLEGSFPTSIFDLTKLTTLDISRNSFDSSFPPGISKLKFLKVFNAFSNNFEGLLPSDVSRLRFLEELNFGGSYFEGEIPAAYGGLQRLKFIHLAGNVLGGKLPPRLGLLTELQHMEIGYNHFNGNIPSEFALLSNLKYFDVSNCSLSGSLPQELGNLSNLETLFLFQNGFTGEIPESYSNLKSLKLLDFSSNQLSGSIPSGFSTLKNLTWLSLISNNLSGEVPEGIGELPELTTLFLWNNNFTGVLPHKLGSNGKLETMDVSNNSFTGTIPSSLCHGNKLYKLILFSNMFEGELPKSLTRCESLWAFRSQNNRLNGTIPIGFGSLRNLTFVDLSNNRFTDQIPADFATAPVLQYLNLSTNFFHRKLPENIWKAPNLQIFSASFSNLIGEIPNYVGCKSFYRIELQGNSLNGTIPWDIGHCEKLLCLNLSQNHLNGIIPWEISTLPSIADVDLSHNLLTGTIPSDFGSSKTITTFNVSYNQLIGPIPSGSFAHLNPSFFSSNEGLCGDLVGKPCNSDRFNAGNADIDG

[3] = target: T3, ecdTDR F281 alanine mutant (Arabidopsis thaliana, UniProt Q9FII5 30-642, alanine substitution of F281); test: as above
T3 construct: TDR/PXY of A. thaliana, extracellular domain, residues 30-642; The text says only 'mutational analyses' of F281; source: High Five insect cells (baculovirus), secreted, purified as the wild type (Ni-NTA, size-exclusion chromatography)
T3 sequence (looked up): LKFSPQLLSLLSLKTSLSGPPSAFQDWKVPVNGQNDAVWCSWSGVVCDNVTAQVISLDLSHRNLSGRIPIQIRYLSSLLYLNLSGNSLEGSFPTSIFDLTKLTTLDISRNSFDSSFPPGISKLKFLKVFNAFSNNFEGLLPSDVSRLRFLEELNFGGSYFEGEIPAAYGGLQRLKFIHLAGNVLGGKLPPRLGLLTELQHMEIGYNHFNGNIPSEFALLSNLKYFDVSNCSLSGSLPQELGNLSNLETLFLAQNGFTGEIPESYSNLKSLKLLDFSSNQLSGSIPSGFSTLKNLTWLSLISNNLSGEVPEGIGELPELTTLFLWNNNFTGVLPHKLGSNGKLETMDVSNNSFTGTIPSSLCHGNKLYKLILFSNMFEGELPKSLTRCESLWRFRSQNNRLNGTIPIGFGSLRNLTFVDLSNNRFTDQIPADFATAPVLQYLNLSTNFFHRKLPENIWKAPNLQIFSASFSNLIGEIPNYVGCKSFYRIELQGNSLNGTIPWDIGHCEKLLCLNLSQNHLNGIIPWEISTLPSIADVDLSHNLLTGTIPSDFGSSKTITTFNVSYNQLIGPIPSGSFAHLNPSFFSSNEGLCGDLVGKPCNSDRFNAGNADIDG

Measured: binding result

B1: Tracheary Element Differentiation Inhibitory Factor (TDIF) peptide (peptide)
peptide: HEV[Hyp]SG[Hyp]NPISN
notes: TDIF, the 12-residue CLE peptide processed from CLE41 and CLE44 of A. thaliana; printed as HEV(Hyp)SG(Hyp)NPISN; numbers count on: the 12-residue peptide; CLE44 encodes the same peptide; also called wild type TDIF; wtTDIF; source: synthetic peptide (peptide 2.0)
binds: [1] | [2] | [3]
